The values below come from PMC11685663.

The assay concerns the target recombinant H5 hemagglutinin (rH5) ectodomain from A/Texas/37/2024 (H5N1, clade 2.3.4.4b) (influenza A virus A/Texas/37/2024 (H5N1)). The assay can be described thus: cryo-EM structure.

With “recombinant H5 hemagglutinin (rH5) ectodomain from A/Texas/37/2024 (H5N1, clade 2.3.4.4b) (natural protein)”, the stoichiometry N (commonly a count of units in the complex or per binding partner) is 3.
